Test results reported in patent US20240101687A1.

What was measured:
[1] = target: human IGF1R on cells (human) (UniProt P08069); test: FACS on MCF-7 cells (FL1-H), anti-human FITC; MFI of 2nd Ab only 4.53, untreated 2.51
[2] = target: human IGF1R on cells (human) (UniProt P08069); test: FACS on JIMT-1 cells (FL1-H), anti-human FITC; MFI of 2nd Ab only 1.89, untreated 1.36
[3] = target: human IGF1R on cells (human) (UniProt P08069); test: FACS on BT474 cells (FL1-H), anti-human FITC; MFI of 2nd Ab only 1.93, untreated 1.8

Chain of IMC-A12 (antibody) (VH): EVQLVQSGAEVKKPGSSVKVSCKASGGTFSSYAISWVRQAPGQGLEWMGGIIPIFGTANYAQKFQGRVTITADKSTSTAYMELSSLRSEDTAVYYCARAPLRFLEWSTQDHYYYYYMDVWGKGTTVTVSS
Chain of IMC-A12 (antibody) (VL): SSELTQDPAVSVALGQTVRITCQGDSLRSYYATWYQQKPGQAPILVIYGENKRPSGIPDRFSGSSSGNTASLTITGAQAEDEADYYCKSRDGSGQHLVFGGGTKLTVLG

IMC-A12 (antibody)
MFI [1]: 40.1 | MFI [2]: 23 | MFI [3]: 18.3
